# Reference: the DeepSol protein solubility set
# Assay: soluble on expression in E. coli; label from the status in PepcDB or PDB records
row,Sequence,soluble on expression in E. coli
1,MGSDKIHHHHHHMNFTQNEKLKQLSERSIVIGVDIASELHYARAFDWRGVELGKVFKFENSAEGFKNLYAWIERIKRQAQKDSIVVGAEPTGHYWFGLASYLKEQNIKLVLVNPFHVKRSKELDDNHPSKTDAKDPKTIAKLVIEGRYNEPYIPEGLYAELRIAVTCRVRIQKEMNSIKNRIQRWLKIYFPEHETVFGKFDATSSMLVLQVAPLPRDIERLGVEGINRIWRDNKLRAVGMKRAKSLYEAAQKSIGCTEGESCSRMEIQLLLQDYHTKTAQYQAVTETIDGLCRQIPEVAKLLEIKGVGLVTVAGFLSEVGDIKRFNSPKQIQKLAGLALRESSSGKHKGQTTISKRGRARLRAILFQAVMPLVAKNAEFAEIHNYYTTRTQNPLKKKQSLIALSCKLIRVFYAILTKGTDYDPKKLIMDIHRPVEYLAA,not soluble
2,MINTMTLDNGVRIITEKMSTVRSVSIGIWVGTGSRYESAEENGISHFLEHMFFKGTNTRSAQEIAEFFDSIGGQVNAFTSKEYTCYYAKVLDDHAGQAIDTLSDMFFHSTFQKEELEKERKVVFEEIKMVDDTPDDIVHDLLSSATYGKHSLGYPILGTVETLNSFNEGMLRHYMDRFYTGDYVVISVAGNVHDELIDKIKETFSQVKPTTYNYQGEKPMFLPNRIVRKKETEQAHLCLGYPGLPIGDKDVYALVLLNNVLGGSMSSRLFQDIREKRGLCYSVFSYHSSFRDSGMLTIYAGTGHDQLDDLVYSIQETTSALAEKGLTEKELENGKEQLKGSLMLSLESTNSRMSRNGKNELLLKKHRSLDEMIEQINAVQKQDVSRLAKILLSASPSISLINANGELPKALIHLEHHHHHH,soluble
3,MSLGITGPTFDLTAQPGRANQPDGASVYSWGYGCNPRTVPGFLPSVNPLAGQNCPGMQLPGPTLIVHQGDVVTVTLTNNLPPAAGNTSILFPGFQVCAGTLDPNTGACSGTPTGVQGLLTREAQTGKTVTYTFIATTPGTHAYYSGTQGDLQVEMGLYGALIVLPTASGSVAVPAGCRAVSSLLPDGQPDYRNAAAAYNHSMACYDREYLFQFSEIDPAIHVQAEQQAGLPCAQPAGCMIVRTEPYHPAYFMVNGRSMPDDMDTNYAPQYPSQPYNGNPHMHPGELVLLRIIGTGRWQHPFHEHGNHVRVLARDGNLLLSQGDPSKVAGPLLFTTTTTPGLAMDGIFYWTGRGLNWDVYGHKPGDGSVCIPDANGYYTQDPTAPNYYEWCADHDKPLEAHPFGDVNSGGPVTLPDPNIFSNGAWYGGSPYLGPDATIRAVGATGTTPPTGTIANPPTTEAGFAFMWHSHNEREITTNNIFPGGMMMMMLVDPQAFVINEANEGHHHHHH,not soluble
4,MGSDKIHHHHHHMSTAIRYLRLYLHRPAAQGGGRRGIGYLSQYGDILRVSFDEDYIADPQRPTLSLSYRGANEADTQRILRSARDARLVRTDGRWPAYFQNLLPEGHNRDRLARERGCAPDDEFELLAAAGHDLMGALEVEPVPAQEGVPDVVRYWHTTQGLDVLEPGFVEYPVEDAASLPGVVTKFSAVQDGRRYLVKRRGAAGSVILKLPTTAHPDLVANEFTCYQLAGSLGLHCAQARIITRAEAELPEAVPLDDILAVQRFDHLADGTRVHMEEFNQALGYAPRQKYGKGLLQDWATMLRVVDRLSDQPVQDTREFLARMVAFILMGNTDAHLKNWALVYPDGHTPRLAPLYDPVCVAAFFEGATEHQYAVNRAIDRSMRALDWDALQALIKTAGLLRIPRHLALLRDLVRRAQADWPALLADAPSTLQRTVQARLAGGVALTHP,not soluble
5,EVKLEESGGGLVQPGGSMKLSCAASGFTFSDAWMDWVRQSPEKGLEWVAEIRSKVNNHAIHYAESVKGRFTVSRDDSKSSVYLQMNSLRAEDTGIYYCSGWSFLYWGQGTLVTVSAAKTTPPSVYPLAPGSAAQTNSMVTLGCLVKGYFPEPVTVTWNSGSLSSGVHTFPAVLQSDLYTLSSSVTVPSSTWPSETVTCNVAHPASSTKVDKKIVPRD,soluble
6,GSSHHHHHHSSGLVPRGSQILCVGLVVLDVISLVDKYPKEDSEIRCLSQRWQRGGNASNSCTILSLLGAPCAFMGSMAPGHVADFVLDDLRRYSVDLRYTVFQTTGSVPIATVIINEASGSRTILYYDRSLPDVSATDFEKVDLTQFKWIHIEGRNASEQVKMLQRIDAHNTRQPPEQKIRVSVEVEKPREELFQLFGYGDVVFVSKDVAKHLGFQSAEEALRGLYGRVRKGAVLVCAWAEEGADALGPDGKLLHSDAFPPPRVVDTLGAGDTFNASVIFSLSQGRSVQEALRFGCQVAGKKCGLQGFDGIV,soluble
7,MDLKKLLPCGKVIVFRKGEIVKHQDDPIEDVLILLEGTLKTEHVSENGKTLEIDEIKPVQIIASGFIFSSEPRFPVNVVAGENSKILSIPKEVFLDLLMKDRELLLFFLKDVSEHFRVVSEKLFFLTTKTLREKLMNFLVRHMNEKRELTLPVTLEELSRLFGCARPALSRVFQELEREGYIEKHGRRIKVLKNPFEHDRI,not soluble
8,MTGTGILARPERNHYFSLALAFCSWVRNGYGVFRYSDKELLFLASINGQPAVMADLSGNDADVAQKVSLFLTMNEEPPEKWQVVSPLEHPDNWESIITRLSSADLRRCKLTVGNRSKFTLPAVLFLVAASAGTVFWMTQPEPDVVPTPEEIAARARLQFKKPDPPPELPHPWASQPVISDFLKACADLRKPSPVALEGWKLTGGTCTPETFTLIYERQPGGTIEGFLARSKEIFNVIPDFNLKDGARLASVTRPLPSLPRRDEAVPTPSEQLMRVFTWFQKKQLTPAINEIAIPEPLPGNDGEPAPVQKWKEYQFSLSTPVNPDELFPLFQDTGVRLSNIHFELNGGTFSYSSEGHIYASRLEHHHHHH,not soluble
9,MGSDKIHHHHHHMPRDTLVSHRQSVDIGGKFSGKTVLTLDVYGTLIDWERGICDALGPILRGHGLSTSEDEMLERYATHESALEAGPYLTYREILEESLLRIAADLGFTPSEYELDIFSHSVGDWPAFADSRAALVALQKRFRLAVITNGDDEFFSLSNKHLKIQFDYVVTAQQARSYKPSLNNFHVALGRIDAPRSQILHVAQSLYHDHVPAQALGLQTVWINRRRGKPGFGAVPKAEAVPDAEFDDMRAFADAMLER,not soluble
10,EFGQNRATLLASIDVALEHAELFAADDDQMGLFLDESFSIKPKYVETEELPLVDLLAFEKETLGIYFSNHPLSAFRKQLTAQGAVSILQAQRAV,not soluble
11,MLSQLPLFAGGEIVRGFGRGSKELGIPTANFPLEVVKSLPESLPTGAYYGWANVDNGPVHKMVLSIGWNPFYNNKEKSVETHMLHDFNCDLYGQTLKICIVGYLRPERSFDSLESLIAAIRGDIEQAKAFLDEADKAKLKEAPFFTEKLCSSKLEHHHHHH,not soluble
12,MSDLMQKENIVVMLTKKGFLKRLSQNEYKLQGTGGKGLSSFDLNDGDEIVIALCVNTHDYLFMISNEGKLYLINAYEIKDSSRASKGQNISELINLGDQEEILTIKNSKDLTDDAYLLLTTASGKIARFESTDFKAVKSRGVIVIKLNDKDFVTSAEIVFKDEKVICLSKKGSAFIFNSRDVRLTNRGTQGVCGMKLKEGDLFVKVLSVKENPYLLIVSENGYGKRLNMSKISELKRGATGYTSYKKSDKKAGSVVDAIAVSEDDEILLVSKRSKALRTVAGKVSEQGKDARGIQVLFLDNDSLVSVSKFIK,soluble
13,MAEKIKINNNVFIYPMPVTLLGANVKGKANLMALGWVSRVNANPPMLGVGVNKSHYTPEGIAENGSFSVNFPYSGMVKKTDYCGLVSGEKVDKSGLFEVFYGELKTAPMIKECTLNLECRVVETLEFPTNYFFVGEIIAAYSEEQYLIQGKPDIKKMDPLLLTMPDNSYWTVGDYAGAALKTGKSLMEKRHHHHHH,soluble
14,MGSDKIHHHHHHVVEQSLSVRNGIRHIVWDWNGTLLDDNHANLAAANHVCEMFGVPPMTLEDWRKIFRRPLVPFYEELLGRPLSDEEWQRLDAAYNSYYQRLLPSCRLADGAVDTLHQWRRAGGTQSLLSMAAHDHLVPVITEFGLVSHFTRVDGRQRTTDADSKAEYLAAHLDAQGIDPATVVLIGDIDDDAHAARMVGAKAVLVATGLMSRERLEATGHPVADSLTEAVQLVHG,not soluble
15,MSLFMPPVFPAHWHVSQPVLIADTFSSLVWKVSLPDGTPAIVKGLKPIEDIADELRGADYLVWRNGRGAVRLLGRENNLMLLEYAGERMLSHIVAEHGDYQATEIAAELMAKLYAASEEPLPSALLPIRDRFAALFQRARDDQNAGCQTDYVHAAIIADQMMSNASELRGLHGDLHHENIMFSSRGWLVIDPVGLVGEVGFGAANMFYDPADRDDLCLDPRRIAQMADAFSRALDVDPRRLLDQAYAYGCLSAAWNADGEEEQRDLAIAAAIKQVRQTSYEGHHHHHH,soluble
16,MSFKVKNQSKHLYSLMTKFKRSQLILKHQSNNFASELWNEEDIIRSKQFIELIEDTLLHLKKDTVDFIYDIFIYGKKPCDISYSNSTYYKKLNKAANSFFDHFVWEAPIYKTKELKNDNSHS,soluble
17,MDCIRVTTIGYYHRDGDMRVTPGLLPKILNRECLKPLREDFFNLNIEVPDSGQGENNMVSFLDYISQTKCLEDAQPDFVTNKQILTALTGNKPFTIHAIHLKGTIFSFKSGEVRYQDTKNFGGAFEHFCTRTRNDEQLETDDTVRKAVFKAEIPRGNTQFYRVLYSGQIDAIDNEVDRKHYELKIMSQGLNEYFWKEKSCKFYWQSVFGNAPVLIIGSRSGQYSTQTTNNYPPYSLYKVEELKRDRIPSMAARCRKIPGRFGPAPPWKISEGEDNALYFLDLVKDNVINDGDCFSFTRTDENPDWDVKRDEESAAQFRDVVLQYLDR,not soluble
18,MGSDKIHHHHHHMEELFTYKEFIKMMQNYGIRHKKRKLRRNENVMTNSSSPNSVILLIKGYICSYTCESPETLLSVFEPGVFLSYSILEDLPPLVTNIALSEECIVYEYEKEDIEYALSLFPENFGFQYFFLKKIGRHLYYKALLNAKDHQEKLYYTIKYLGKLIGEKDGKGNIVLPPEITIKILIEYSTLSKAAFYRQRIRLIEEEILKPHKKTFLVPKKVVKHYEKQLTSI,not soluble
19,MAVAALKALLPPERLRRLTPLGGFEARVYTDGERVYKVYRKEEAHLAGLEARRMARAGFGSLVLAVIQGAEGGVLVTRRFPGRPFAPEAFTSKTLAALSHLFLALHRLPEPGKVTQEELLSRLERFAESLHDQPEALSLVQALKREVGLAAGVERRFCHRDAWAGNLLLKAPEAEGPEVFLVDWARAGGDDPARDLALLKTGSLDLLGEEAARAALFRMARLYPKEVRERLAFYVPLTYLHDLHWFRTKEPQGFPQALEEKLPKALAFFRDFFPRRGAW,soluble
20,MGSDKIHHHHHHMNSMLNILEEISSRIKRPLITLLLFKYLRSVKRLECKNGQIIEIDDPSKYFISDLVYVCDVFKHFKSIKVRNGKVILDGIPFRPSELRYIGDVIEKLKLRVGSNFIAEFIYNGRIVKFRLAMTSKGVTGVFSLYEMFVREDYKVFDYKGKTVLDVCGFIGDSALFFALNDAKKVVSFEPQREAYELLVENVKLNEFDNIIVAINEAVGEKDSMVEFLIPDEFSLGASRYIRAGKKTSVKVRDIIRVMNEFKPDIIKLDCEGCEYGIIDKLLKTGRIYDVEGLVVEFHDTPEVKRWDYIRSLPFDVAIISDNPHWKVTVVSIRVMQNDAPRHI,not soluble
21,GEPVEFQPKYRDLMLVVDLSGSMQKEDMNLDGEYIDRLSAVKKVLSDFVAKRKGDRLGVVLFGDHAYLQTPLTADRQTVIQQIKQTVIGLVGQRTAIGDGIGLGTKTFVDSDAPQRVMILLSDGSNTAGVLDPIEAAEIAKK,not soluble
